The results in this text go back to patent US20140050743A1, “BINDING PROTEINS TO INHIBITORS OF COAGULATION FACTORS” (BAYER INTELLECTUAL PROPERTY GMBH, priority 2011, published 2014).

This test is described as follows: ELISA-based activity assay of antibody variants without a competition step. It is filed as binding. To be noted: Table 10, multiple substitutions within M14-G07, variant to reference ratio (reference 2-fold improved over wt). On the set-up: key: +++: Variants with an average ratio above reference plus 2×SD; +/−: variants with a ratio below reference minus 2×SD; ++: All variants with a performance in between both thresholds; −: Variants with a ratio below 0.5. On the procedure: To determine the activity of the mutated antibody variants on compound from Example 1K an equilibrium or dissociation limited ELISA assay format was used. Briefly, MTP plates (Nunc Maxisorp black, 460518) were coated with 4 μg/ml streptavidin (Calbiochem, 189730) diluted in coating buffer (Candor Bioscience GmbH, 121500) and incubated over night at 4° C. After washing with PBST, plates were blocked with 100% Smart Block (Candor Bioscience GmbH, 113500) in PBST for 1 h at room temperature and the washing step was repeated. Plates were incubated with compound from Example 1K at varying concentrations (0.3-200 nM) for 1 h at 37° C., washed with PBST and antibody fragments were immobilized by adding 25 μl of the crude bacterial cultures for 1 h at room temperature. After washing with PBST a competition step or the immediate detection was performed. […] For the detection of the residually bound Fabs a HRP-coupled anti-lambda antibody (Sigma, A5175) diluted in 10% Smart Block in PBST was added for 1 h at room temperature. After washing 10 μM Amplex Red (Invitrogen, A12222) were added and incubated for 10 to 30 min at room temperature followed by measurement of the fluorescence signal.
Provided in Table 9 are several examples of single and/or double amino acid substitutions introduced into the heavy and/or the light chain of M14-G07 (wt). Performance of the variants was analyzed in quadruples in the ELISA without a competition step and the FXa deinhibition assay (FXa DIA). In the ELISA, averages were calculated and normalized to the respective average expression level. Overall performance of variants was evaluated by comparing the variant to wt ratio from 2-3 independent experiments. Variants with an average ratio above wt plus 2×SD (standard deviation of the ratio) were considered as improved and are marked with “++”, whereas variants with a ratio below wt minus 2×SD were considered as reduced in their binding affinity and are marked with “−”. All variants with a performance in between both thresholds are marked with “+/−”. Variants with average fluorescence counts below the negative control (non-expressing cells) plus 3×SD were considered as non-binding and marked with “−−” with none of the variants fulfilling this criteria. In the FXa deinhibition assay averages were calculated and overall performance of variants was evaluated by comparing the variant to wt ratio from 2-3 independent experiments. Variants with an average ratio above wt plus 2×SD were considered as improved and are marked with “++”, whereas variants with a ratio below wt minus 2×SD were considered as either reduced in their binding affinity or non-binding and are marked with “−−”. All variants with a performance in between both thresholds are marked with “+/−”. Variants not analyzed are marked with “nd” (not determined). CDRs were defined according to Kabat.
Provided in Table 10 are examples of combined amino acid substitutions within M14-G07 antibodies. While not every combination is provided in Table 10, it is contemplated that the anti-rivaroxaban antibody may comprise any combination of modifications provided. Variant performance was analyzed in quadruples in the ELISA without a competition step. Averages were calculated, average background signals determined on a streptavidin coated plate without compound from Example 1K were subtracted if the compound from Example 1K concentration used for coating was below 10 nM and signals were normalized to the respective average expression level. Overall performance of variants was evaluated by comparing the variant to reference ratio from 2-3 independent experiments using a 2-fold improved reference variant as compared to wt. Variants with an average ratio above reference plus 2×SD are marked with “+++”, whereas variants with a ratio below reference minus 2×SD are marked with “+/−”. All variants with a performance in between both thresholds are marked with “++”. […]
In general terms: ELISA stands for enzyme-linked immunosorbent assay.

Substitutions are numbered along the chain they refer to.

B1: M14-G07-3: antibody, Vh SEQ ID NO: 131, Vl SEQ ID NO: 132 (antibody, listed as Homo Sapiens, V domains shown)
VH: EVQLLESGGGLVQPGGSLRLSCAASGFTFSSYAMSWVRQAPGKGLEWVSGISGSGGSTYYADSVKGRFTISRDNSKNTLYLQMNSLRAEDTAVYYCARQGRTSFYLDVWGQGTLVTVSS
VL: QSVLTQPPSASGTPGQRVTISCSGSSRNIGSYYVYWYQQLPGTAPKLLIYDNRQRPSGVPDRFSGSKSGTSASLAISGLRSEDEADYYCVAWDDSWSGTWVFGGGTKLTVL
In the case of B1, the ELISA result is recorded as “+++”.

B2: M14-G07-4: antibody, Vh SEQ ID NO: 133, Vl SEQ ID NO: 134 (antibody, listed as Homo Sapiens, V domains shown)
VH: B1 VH with T28R, S49G
VL: B1 VL with S31A, W96Y
As to B2, the ELISA result was “+++”.

B3: M14-G07-14: antibody, Vh SEQ ID NO: 153, Vl SEQ ID NO: 154 (antibody, listed as Homo Sapiens, V domains shown)
VH: B1 VH with S49G
VL: B1 VL with W96Y
Take B3: the ELISA result was “+++”.

B4: M14-G07-13: antibody, Vh SEQ ID NO: 151, Vl SEQ ID NO: 152 (antibody, listed as Homo Sapiens, V domains shown)
VH: B1 VH with S49G
VL: B1 VL with Y32F
For B4, the ELISA entry is “+++”.

B5: M14-G07-15: antibody, Vh SEQ ID NO: 155, Vl SEQ ID NO: 156 (antibody, listed as Homo Sapiens, V domains shown)
VH: B1 VH with S49G
VL: B1 VL with R27S, R53N, T99H
For B5, the ELISA entry is given as “+++”.

B6: M14-G07-23: antibody, Vh SEQ ID NO: 171, Vl SEQ ID NO: 172 (antibody, listed as Homo Sapiens, V domains shown)
VH: B1 VH with T28R, S49G
VL: B1 VL with S31A, Y32F, R53N, W96L
For the molecule B6, the ELISA entry is “+++”.

B7: M14-G07-10: antibody, Vh SEQ ID NO: 145, Vl SEQ ID NO: 146 (antibody, listed as Homo Sapiens, V domains shown)
VH: B1 VH with S49G
VL: B1 VL with Y32F, R53N, T99H
As for B7, the ELISA entry was “+++”.

B8: M14-G07-7: antibody, Vh SEQ ID NO: 139, Vl SEQ ID NO: 140 (antibody, listed as Homo Sapiens, V domains shown)
VH: B1 VH with T28R, S49G
VL: B1 VL with R53N, T99H
B8: the ELISA result was “+++”.

B9: M14-G07-24: antibody, Vh SEQ ID NO: 173, Vl SEQ ID NO: 174 (antibody, listed as Homo Sapiens, V domains shown)
VH: B1 VH
VL: B1 VL with R53N, W96L
B9: the ELISA result is “+++”.

B10: M14-G07-20: antibody, Vh SEQ ID NO: 165, Vl SEQ ID NO: 166 (antibody, listed as Homo Sapiens, V domains shown)
VH: B1 VH with T28R, S49G
VL: B1 VL with R27S, S31A, R53N, W96L
For the molecule B10, the ELISA result is “+++”.

B11: M14-G07-11: antibody, Vh SEQ ID NO: 147, Vl SEQ ID NO: 148 (antibody, listed as Homo Sapiens, V domains shown)
VH: B1 VH with T28R, S49G
VL: B1 VL with S31A, Y32F, T99H
As to B11, the ELISA entry is reported as “+++”.

B12: M14-G07-22: antibody, Vh SEQ ID NO: 169, Vl SEQ ID NO: 170 (antibody, listed as Homo Sapiens, V domains shown)
VH: B1 VH with S49G
VL: B1 VL with R27S, S31A, R53N
With B12, the ELISA result was “+++”.

B13: M14-G07-6: antibody, Vh SEQ ID NO: 137, Vl SEQ ID NO: 138 (antibody, listed as Homo Sapiens, V domains shown)
VH: B1 VH with T28R, V37I, S49G
VL: B1 VL with W96Y
Turning to B13, the ELISA entry was “+++”.

B14: M14-G07-17: antibody, Vh SEQ ID NO: 159, Vl SEQ ID NO: 160 (antibody, listed as Homo Sapiens, V domains shown)
VH: B1 VH with S49G
VL: B1 VL with S31A, Y32F
B14: the ELISA entry was “+++”.

B15: M14-G07-25: antibody, Vh SEQ ID NO: 175, Vl SEQ ID NO: 176 (antibody, listed as Homo Sapiens, V domains shown)
VH: B1 VH with T28R, S49G
VL: B1 VL with R27S, S31A, R53N, W96Y
In the case of B15, the ELISA result is recorded as “+++”.

B16: M14-G07-18: antibody, Vh SEQ ID NO: 161, Vl SEQ ID NO: 162 (antibody, listed as Homo Sapiens, V domains shown)
VH: B1 VH with T28R, S49G
VL: B1 VL with R53N
For B16, the ELISA entry is reported as “+++”.

B17: M14-G07-21: antibody, Vh SEQ ID NO: 167, Vl SEQ ID NO: 168 (antibody, listed as Homo Sapiens, V domains shown)
VH: B1 VH with T28R, S49G, R101E
VL: B1 VL with R27S, Q38H, R53N
For the molecule B17, the ELISA result was “+++”.

B18: M14-G07-5: antibody, Vh SEQ ID NO: 135, Vl SEQ ID NO: 136 (antibody, listed as Homo Sapiens, V domains shown)
VH: B1 VH with T28R
VL: B1 VL with W96Y
B18: the ELISA entry is listed as “+++”.

B19: M14-G07-9: antibody, Vh SEQ ID NO: 143, Vl SEQ ID NO: 144 (antibody, listed as Homo Sapiens, V domains shown)
VH: B1 VH with T28R, S49G
VL: B1 VL with Y32F, R53N, D94V, W96L, T99H
B19: the ELISA result is “+++”.

B20: M14-G07-8: antibody, Vh SEQ ID NO: 141, Vl SEQ ID NO: 142 (antibody, listed as Homo Sapiens, V domains shown)
VH: B1 VH with S49G
VL: B1 VL with S31A, Y32F, W96Y
As to B20, the ELISA result is listed as “+++”.

B21: M14-G07-16: antibody, Vh SEQ ID NO: 157, Vl SEQ ID NO: 158 (antibody, listed as Homo Sapiens, V domains shown)
VH: B1 VH with T28R, S49G
VL: B1 VL with Y32F, W96Y
B21: the ELISA result is listed as “+++”.

B22: M14-G07-19: antibody, Vh SEQ ID NO: 163, Vl SEQ ID NO: 164 (antibody, listed as Homo Sapiens, V domains shown)
VH: B1 VH
VL: B1 VL with Y32F, W96L, T99H
Consider B22, for which the ELISA entry is listed as “+++”.

B23: M14-G07-12: antibody, Vh SEQ ID NO: 149, Vl SEQ ID NO: 150 (antibody, listed as Homo Sapiens, V domains shown)
VH: B1 VH
VL: B1 VL with R53N
Regarding B23, the ELISA entry is on record as “+++”.

B24: M14-G07-26: antibody, Vh SEQ ID NO: 177, Vl SEQ ID NO: 178 (antibody, listed as Homo Sapiens, V domains shown)
VH: B1 VH with S49G, R101K
VL: B1 VL with R27S, Y32F, R53N, W96Y
Regarding B24, the ELISA result is on record as “+++”.
